Assay [1] has as its target T1, human CD200R1 isoform a on CHOK1 cells (CHOK1/hCD200R1a) (human, UniProt Q8TD46 25-348).
T1 construct: also called CHOK1/CD200R1a
T1 sequence: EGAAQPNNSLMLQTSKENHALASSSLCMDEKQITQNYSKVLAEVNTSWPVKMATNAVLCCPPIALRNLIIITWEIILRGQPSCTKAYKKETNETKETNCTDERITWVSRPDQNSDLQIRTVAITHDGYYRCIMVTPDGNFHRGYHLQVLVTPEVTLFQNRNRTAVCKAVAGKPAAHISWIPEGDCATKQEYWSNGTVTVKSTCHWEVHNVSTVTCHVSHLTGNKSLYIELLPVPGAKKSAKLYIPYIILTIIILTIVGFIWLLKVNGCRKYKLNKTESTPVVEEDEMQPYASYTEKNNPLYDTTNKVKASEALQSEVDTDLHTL
Description: flow cytometry blocking assay: antibody titrated against biotin-labelled human CD200 binding to CHOK1/hCD200R1a cells. The procedure: To study the activity of human anti-CD200R1 antibodies in blocking the binding of human CD200 to its receptor CD200R1a in vitro, CHOK1/hCD200R1a was used to perform cell-level human CD200/human CD200R1a binding and blocking experiments.
(§1) In brief, CHOK1/hCD200R1a cells were digested and resuspended in 2% BSA in PBS. […] The cells were placed at 4° C. and incubated for 1 hour in the dark. […] 100 μL/well of pre-cooled PBS containing 2% BSA was added to rinse the cells twice, centrifugation was performed at 500 g, 4° C. for 5 minutes, and the supernatant was discarded. Fluorescent secondary antibody (PE Streptavidin, BD, Cat #: 554061, 1:200) was added at 100 μL/well, and incubation was performed at 4° C. for 30 minutes in the dark. The cells were washed twice with 200 μL/well of pre-cooled PBS, and were centrifuged at 500 g, 4° C. for 5 minutes, and the supernatant was discarded. Finally, 200 μL/well of pre-cooled PBS was used to resuspend the cells, and the fluorescence signal values were read using ACEA Novocyte 3000 flow cytometer. IC50 values were calculated.
(A flow cytometer gives signals particle by particle.)

For assay [2], the target named is T2, cell surface glycoprotein CD200 receptor 2 isoform 1 precursor CD200R1L recombinant protein (Sino … (human, UniProt Q6Q8B3 24-239)).
T2 construct: Bought protein; also called hCD200R1L; recombinant human CD200R1L protein
T2 sequence: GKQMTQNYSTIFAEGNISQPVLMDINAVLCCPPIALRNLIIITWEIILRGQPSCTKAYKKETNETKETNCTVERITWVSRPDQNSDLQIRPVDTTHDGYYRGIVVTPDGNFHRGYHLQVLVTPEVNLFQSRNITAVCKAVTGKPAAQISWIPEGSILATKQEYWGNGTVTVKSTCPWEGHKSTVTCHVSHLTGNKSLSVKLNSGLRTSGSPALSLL
Kind of assay: ELISA on plate-coated recombinant human CD200R1L. As for the experimental part:
In specific, the cell surface glycoprotein CD200 receptor 2 isoform 1 precursor CD200R1L recombinant protein (Sino Biologicals, 11620-H08H, SEQ ID NO:174) were diluted with PBS to 1 μg/mL, and added to a 96-well plate (Corning, #9018) at 100 μl per well, and incubated overnight at 4° C. After the liquid was discarded, the plate was washed 3 times with PBST buffer (pH 7.4, containing 0.05% tween-20), 250 μl 2% BSA blocking solution was added into the plate and incubated at 37° C. for 1 hour. The blocking solution was discarded and the plate was washed 3 times with PBST buffer (pH 7.4, containing 0.05% Tween-20). The anti-CD200R1 antibodies were diluted and added at 100 µl/well, incubated at 37° C. for 1 hour, with isotype antibody as a control. After the plate was washed 3 times with PBST buffer (pH 7.4, containing 0.05% Tween-20), goat anti-human HRP secondary antibody (Invitrogen, #A18805) was diluted 5000 times, added into the plate and incubated for 1 hour at 37° C. in the dark. After the plate was washed with PBST buffer (pH 7.4, containing 0.05% tween-20) for 3 times, 100p/well of TMB (Biopanda, #TMB-S-003) was add and the plate was placed in the dark at room temperature for about 30 minutes; stop solution (BBI life sciences, #E661006-0200) was added at 50p/well to each well to terminate the reaction, and the absorbance (OD450) at 450 nm was measured in a microplate reader (PerkinElemer, #Enspire).

In assay [3] the target is T1, human CD200R1 isoform a on CHOK1 cells …. Kind of assay: flow cytometry, CHOK1/hCD200R1a cells (FITC-Mean); table beside the curves, head without unit, x axis Log [Ab] (nM).
The target is the same in assay [4]. Kind of assay: flow cytometry blocking assay: antibody titrated against biotin-labelled human CD200 binding to CHOK1/hCD200R1a cells; head prints EC50 without unit, x axis Log [Ab] (nM), y axis Inhibition %. The procedure:
as §1

By IC50 is commonly meant the concentration at which inhibition is half-maximal. Low readings indicate greater potency, high ones weaker potency. One may read the EC50 as the midpoint of the concentration-response curve. Read a high EC50 as a less potent agent.

B1: PR005509 (antibody, human IgG1, kappa, L234A L235A, V domains shown)
VH: QVQLVESGGGVVQPGRSLRLSCAASGFTFSSYGFHWVRQAPGKGLEWLGLIWSDGSNKYYADSVKGRFTISRDNSKNTLYLQMNSLRAEDTAVYYCARDRIVGAGFDYWGQGTLVTVSS
VL: not shown
As for B1, in assay [1], the “Blocking (Max %)” value was 102% and the IC50 was 485 pM.

B2: PR005474 (antibody, human IgG1, kappa, L234A L235A, V domains shown)
VH: QVQLVESGGGVVQPGRSLRLSCAASAFTFSSYGMHWVRQAPGKGLEWVALIWNDGSNKFYADSVKGRFTISRDNSKNTLFLQMNSLRAEDTAVYYCARDRILGAGFDYWGQGTLVTVSS
VL: not shown
Regarding B2, in assay [1], the “Blocking (Max %)” value came to 101% and the IC50 is 309 pM.

B3: PR007973 (antibody, human IgG1, kappa, V domains shown)
VH: QVQLVESGGGVVQPGRSLRLSCAASGFTFSSYGFHWVRQAPGKGLEWLGIIWSDASNKYYADSVKGRFTISRDNSKNTLYLQMNSLRAEDTAVYYCARDRIVGEGFDYWGQGTLVTVSS
VL: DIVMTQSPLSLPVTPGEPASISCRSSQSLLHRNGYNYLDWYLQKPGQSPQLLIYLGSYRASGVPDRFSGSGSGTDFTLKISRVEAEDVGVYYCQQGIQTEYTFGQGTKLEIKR
notes: PTM variant of PR006839 (human IgG1)
With B3, the binding result in assay [2] is reported as “no binding (tested: 100 nM)”.

B4: PR002906 (antibody, V domains shown)
VH: QVQLQESGPGLVKPSETLSLTCTVSGYTITSGYDWSWIRQPPGKGLEWIGYINYGGSTNYKPSLGSRVTISVDTSKNQFSLKLSSVTAADTAVYYCARYNEYKSYIYDWYFDFWGQGTLVTVSS
VL: DIQMTQSPSSLSASVGDRVTITCKASKNIRSYLAWYQQKPGKAPKLLIYSGSTLHSGVPSRFSGSGSGTDFTLTISSLQPEDFATYYCQQHHEYPLTFGQGTKVEIKR
notes: also called recombinant IgG1 antibody of huDX182
As to B4, in assay [1], the “Blocking (Max %)” value was 98.3% and the IC50 is 1580 pM. Also, the EC50 in assay [3] was 292 pM. This molecule returned a half-maximal effective concentration (EC50) in assay [4] of 479 pM.

B5: PR006480 (antibody, human IgG1, kappa, L234A L235A)
heavy: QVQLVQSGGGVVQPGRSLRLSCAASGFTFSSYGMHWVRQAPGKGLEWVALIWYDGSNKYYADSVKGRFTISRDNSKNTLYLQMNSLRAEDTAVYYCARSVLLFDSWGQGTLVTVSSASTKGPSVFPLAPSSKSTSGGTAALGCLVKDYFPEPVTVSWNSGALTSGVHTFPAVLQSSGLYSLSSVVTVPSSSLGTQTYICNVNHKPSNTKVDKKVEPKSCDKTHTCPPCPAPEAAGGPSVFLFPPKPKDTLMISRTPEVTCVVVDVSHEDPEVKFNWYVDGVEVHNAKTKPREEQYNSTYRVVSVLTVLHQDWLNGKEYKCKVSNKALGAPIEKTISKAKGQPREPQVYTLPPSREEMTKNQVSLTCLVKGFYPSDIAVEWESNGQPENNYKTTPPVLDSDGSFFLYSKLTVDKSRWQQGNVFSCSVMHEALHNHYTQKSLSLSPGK
light: DIQMTQSPPSLSASVGDRVTITCRASQSISSYLNWFQQKAGKAPKLLISATSNLQSGVPSRFSGSGSGTDFTLTISSLQPEDLATYYCQQSYSSPYTFGQGTKVEIKRTVAAPSVFIFPPSDEQLKSGTASVVCLLNNFYPREAKVQWKVDNALQSGNSQESVTEQDSKDSTYSLSSTLTLSKADYEKHKVYACEVTHQGLSSPVTKSFNRGEC
notes: also called PR6480
In the case of B5, the “Blocking (Max %)” value in assay [1] is 63.3%. The IC50 in assay [1] is 607 pM. The figures for the EC50 in assay [3] and in assay [4] were 124 pM and 164 pM, respectively.

B6: PR007223 (antibody, human IgG1, kappa)
heavy: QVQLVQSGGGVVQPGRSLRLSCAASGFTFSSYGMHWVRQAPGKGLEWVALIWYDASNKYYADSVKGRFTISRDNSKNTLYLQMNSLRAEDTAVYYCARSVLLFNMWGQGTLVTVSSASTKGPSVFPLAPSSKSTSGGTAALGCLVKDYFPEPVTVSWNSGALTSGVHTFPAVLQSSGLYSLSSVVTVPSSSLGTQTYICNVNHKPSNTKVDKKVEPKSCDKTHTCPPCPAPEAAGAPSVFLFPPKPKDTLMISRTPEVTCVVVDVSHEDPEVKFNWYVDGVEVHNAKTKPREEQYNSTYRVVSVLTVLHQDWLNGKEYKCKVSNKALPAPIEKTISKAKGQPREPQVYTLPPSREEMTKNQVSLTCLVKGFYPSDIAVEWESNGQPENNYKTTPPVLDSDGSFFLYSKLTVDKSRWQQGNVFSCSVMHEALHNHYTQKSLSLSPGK
light: DIQLTQSPPSLSASVGDRVTITCRASQSISSYLNWFQQKAGKAPKLLISATSNLQSGVPSRFSGSGSGTDFTLTISSLQPEDLATYYCQQTYSSPYTFGQGTKVEIKRTVAAPSVFIFPPSDEQLKSGTASVVCLLNNFYPREAKVQWKVDNALQSGNSQESVTEQDSKDSTYSLSSTLTLSKADYEKHKVYACEVTHQGLSSPVTKSFNRGEC
notes: PTM variant of PR006895 (human IgG1)
On to B6, for which the EC50 in assay [3] worked out at 133 pM; in assay [4] it was 122 pM. The binding result in assay [2] is on record as “no binding (tested: 100 nM)”.

B7: PR007221 (antibody, human IgG1, kappa)
heavy: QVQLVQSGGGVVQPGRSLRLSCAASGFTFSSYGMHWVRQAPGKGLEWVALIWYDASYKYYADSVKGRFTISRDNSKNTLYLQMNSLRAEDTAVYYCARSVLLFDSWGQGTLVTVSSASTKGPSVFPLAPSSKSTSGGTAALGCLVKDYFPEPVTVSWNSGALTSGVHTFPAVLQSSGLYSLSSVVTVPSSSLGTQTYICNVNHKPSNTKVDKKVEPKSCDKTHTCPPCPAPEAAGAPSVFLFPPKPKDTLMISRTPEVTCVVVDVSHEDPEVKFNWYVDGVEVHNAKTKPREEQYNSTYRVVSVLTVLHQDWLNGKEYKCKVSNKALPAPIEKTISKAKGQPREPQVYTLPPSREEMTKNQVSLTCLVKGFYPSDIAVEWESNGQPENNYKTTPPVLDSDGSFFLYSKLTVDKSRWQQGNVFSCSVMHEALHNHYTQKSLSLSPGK
light: DIQLTQSPPSLSASVGDRVTITCRASQSISSYLNWFQQKAGKAPKLLISATSNLQSGVPSRFSGSGSGTDFTLTISSLQPEDLATYYCQQTLSSPYTFGQGTKVEIKRTVAAPSVFIFPPSDEQLKSGTASVVCLLNNFYPREAKVQWKVDNALQSGNSQESVTEQDSKDSTYSLSSTLTLSKADYEKHKVYACEVTHQGLSSPVTKSFNRGEC
notes: as for B6
For B7, the EC50 in assay [3] amounted to 172 pM; in assay [4], 194 pM. For the same molecule, in assay [2], the binding result is “no binding (tested: 100 nM)”.
